Measured values published in paper PMC5288973.

Target: taxol-stabilized microtubules assembled from bovine brain tubulin (bovine) (UniProt Q6B856)
Test: co-sedimentation; various amounts of MBP-GPT2 with a constant amount of taxol-stabilized MTs polymerized from 1 uM tubulin heterodimer; fit of q = (qmax x c)/(Kd + c), one GPT2 binding site on the tubulin dimer assumed

Substance: MBP-GPT2 (full-length Growing Plus-end Tracking protein 2 fused to maltose-binding protein) (from UniProt Q94B38 69-388) (natural protein)
- stoichiometry N (mol of GPT2 per mol of tubulin dimer): 2.5
